Results as given in patent US8551717B2, “Method for determining sumoylation” (Medizinische Hochschule Hannover, priority 2008, dated 2013).

What was measured:
Type in all cases: cell-based
JUN-U = target: T1, JUN-U (Homo sapiens, UniProt P05412+P63279); assay: Trans-SUMOylation by JUN-U; conditions: protein 2 construct coexpressed with JUN-U and EGFP-SUMO1 in HEK293; western blot; Table 2
T1 construct: expressed in transfected cells; host or cells: HEK293

U-MK2 = target: T2, U-MK2 (Homo sapiens, UniProt P49137+P63279); assay: Trans-SUMOylation by U-MK2; conditions: protein 2 construct coexpressed with U-MK2 and EGFP-SUMO1 in HEK293; western blot; Table 2
T2 construct: expressed in transfected cells; host or cells: HEK293

MK2-U = target: T3, MK2-U (Homo sapiens, UniProt P49137+P63279); assay: Trans-SUMOylation by MK2-U; conditions: protein 2 construct coexpressed with MK2-U and EGFP-SUMO1 in HEK293; western blot; Table 2
T3 construct: expressed in transfected cells; host or cells: HEK293

U-p38α = target: T4, U-p38α (Homo sapiens, UniProt P63279+Q16539); assay: Trans-SUMOylation by U-p38α; conditions: protein 2 construct coexpressed with U-p38α and EGFP-SUMO1 in HEK293; western blot; Table 1
T4 construct: expressed in transfected cells; host or cells: HEK293

ERK2-U = target: T5, ERK2-U (Homo sapiens, UniProt P28482+P63279); assay: Trans-SUMOylation by ERK2-U; conditions: protein 2 construct coexpressed with ERK2-U and EGFP-SUMO1 in HEK293; western blot; Table 2
T5 construct: expressed in transfected cells; host or cells: HEK293

U-MK5 = target: T6, U-MK5 (Homo sapiens, UniProt P63279+Q8IW41); assay: Trans-SUMOylation by U-MK5; design: key: (++), strong TransSUMOylation; (+), TransSUMOylation; (+/−) weak TransSUMOylation; (−) no detectable TransSUMOylation; conditions: protein 2 construct coexpressed with U-MK5 and EGFP-SUMO1 in HEK293; western blot; Table 2
T6 construct: expressed in transfected cells; host or cells: HEK293
Source text: (§1) To identify new SUMOylation substrates and to study the function of SUMOylation the Ubc9/substrate dimerisation-dependent SUMOylation system (USDDS) was developed which consists of fusions of the SUMOylation substrate and of the SUMO-conjugating enzyme Ubc9 to the chemically activatable heterodimerisation domains FKBP and FRB, respectively, as shown in FIG. 2. When the substrate protein fused to FKBP is coexpressed with Ubc9-FRB, treatment of HEK293 cells with the rapamycin-related dimerizer AP21967 induces SUMOylation of the substrate protein fused to FKBP at its specific SUMOylation site. […] Dependent on an EcoRl site in the coding sequence, seven C-terminal amino acids of the human STAT1a in the STAT1-FKBP/FRB fusion proteins are missing. For the SUMOylation analysis HEK293 (human embryonic kidney cells) cells have been used. HEK293 cells were cultured in Dulbecco's modified Eagle's medium with high glucose, complemented with 10% fetal calf serum, 2 mM L-glutamine, 100 U/ml penicillin and […] streptomycin. […]
(§2) As shown above, the SUMOylation of a protein of interest can be induced by the heterodimerisation with a binding protein fused to Ubc9. […] Therefore the protein pairs were coexpressed with EGFP-SUMO1 in HEK293 cells and after 24h the transfectants were lysed and the protein extracts were analyzed in western blots. […]

U-ERK2 = target: T7, U-ERK2 (Homo sapiens, UniProt P28482+P63279); assay: Trans-SUMOylation by U-ERK2; conditions: protein 2 construct coexpressed with U-ERK2 and EGFP-SUMO1 in HEK293; western blot; Table 2
T7 construct: expressed in transfected cells; host or cells: HEK293

U-CSNK2B = target: T8, U-CSNK2B (Homo sapiens, UniProt P63279+P67870); assay: Trans-SUMOylation by U-CSNK2B; design: key: (++), strong TransSUMOylation; (+), TransSUMOylation; (+/−) weak TransSUMOylation; (−) no detectable TransSUMOylation; conditions: protein 2 construct coexpressed with U-CSNK2B and EGFP-SUMO1 in HEK293; western blot; Table 2
T8 construct: expressed in transfected cells; host or cells: HEK293
Source text: as §1, §2

U-HSF2BP = target: T9, U-HSF2BP (Homo sapiens, UniProt O75031+P63279); assay: Trans-SUMOylation by U-HSF2BP; design: key: (++), strong TransSUMOylation; (+), TransSUMOylation; (+/−) weak TransSUMOylation; (−) no detectable TransSUMOylation; conditions: protein 2 construct coexpressed with U-HSF2BP and EGFP-SUMO1 in HEK293; western blot; Table 2
T9 construct: expressed in transfected cells; host or cells: HEK293
Source text: as §1, §2

U-HDGF = target: T10, U-HDGF (Homo sapiens, UniProt P51858+P63279); assay: Trans-SUMOylation by U-HDGF; design: key: (++), strong TransSUMOylation; (+), TransSUMOylation; (+/−) weak TransSUMOylation; (−) no detectable TransSUMOylation; conditions: protein 2 construct coexpressed with U-HDGF and EGFP-SUMO1 in HEK293; western blot; Table 2
T10 construct: Ubc9 (fusion partner); expressed in transfected cells; host or cells: HEK293
Source text: as §1, §2

T8 sequence (P63279+P67870 fused): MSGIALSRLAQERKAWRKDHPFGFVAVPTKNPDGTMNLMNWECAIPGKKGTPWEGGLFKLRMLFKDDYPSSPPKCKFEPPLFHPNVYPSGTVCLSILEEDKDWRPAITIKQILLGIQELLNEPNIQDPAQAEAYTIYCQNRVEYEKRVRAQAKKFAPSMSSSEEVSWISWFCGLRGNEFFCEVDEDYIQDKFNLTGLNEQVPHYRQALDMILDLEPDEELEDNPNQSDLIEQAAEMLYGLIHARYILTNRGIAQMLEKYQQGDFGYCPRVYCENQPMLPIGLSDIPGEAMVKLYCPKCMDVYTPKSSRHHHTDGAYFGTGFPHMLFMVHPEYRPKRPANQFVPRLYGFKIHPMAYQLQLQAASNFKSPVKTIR
T10 sequence (P63279+P51858 fused): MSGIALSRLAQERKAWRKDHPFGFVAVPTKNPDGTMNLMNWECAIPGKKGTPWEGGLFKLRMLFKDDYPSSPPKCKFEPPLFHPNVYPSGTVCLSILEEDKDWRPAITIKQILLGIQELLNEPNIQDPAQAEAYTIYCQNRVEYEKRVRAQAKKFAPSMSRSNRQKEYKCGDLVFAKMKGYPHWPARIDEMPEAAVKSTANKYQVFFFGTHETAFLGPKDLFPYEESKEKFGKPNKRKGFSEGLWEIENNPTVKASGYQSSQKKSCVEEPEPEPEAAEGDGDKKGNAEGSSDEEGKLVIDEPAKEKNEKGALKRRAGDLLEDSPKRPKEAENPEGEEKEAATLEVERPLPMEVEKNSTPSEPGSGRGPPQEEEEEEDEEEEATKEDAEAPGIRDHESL
T1 sequence (P05412+P63279 fused): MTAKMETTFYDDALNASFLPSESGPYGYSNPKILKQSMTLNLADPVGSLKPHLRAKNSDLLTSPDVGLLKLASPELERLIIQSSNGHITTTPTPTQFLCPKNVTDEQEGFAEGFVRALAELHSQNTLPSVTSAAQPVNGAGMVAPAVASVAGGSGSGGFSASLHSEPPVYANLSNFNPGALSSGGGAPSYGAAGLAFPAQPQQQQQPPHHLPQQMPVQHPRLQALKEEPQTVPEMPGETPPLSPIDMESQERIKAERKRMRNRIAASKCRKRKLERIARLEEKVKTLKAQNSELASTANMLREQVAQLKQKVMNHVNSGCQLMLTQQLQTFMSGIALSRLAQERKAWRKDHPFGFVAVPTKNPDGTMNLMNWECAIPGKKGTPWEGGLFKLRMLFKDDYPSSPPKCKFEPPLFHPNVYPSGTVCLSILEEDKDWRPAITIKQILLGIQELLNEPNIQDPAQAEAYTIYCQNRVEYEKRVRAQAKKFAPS
T5 sequence (P28482+P63279 fused): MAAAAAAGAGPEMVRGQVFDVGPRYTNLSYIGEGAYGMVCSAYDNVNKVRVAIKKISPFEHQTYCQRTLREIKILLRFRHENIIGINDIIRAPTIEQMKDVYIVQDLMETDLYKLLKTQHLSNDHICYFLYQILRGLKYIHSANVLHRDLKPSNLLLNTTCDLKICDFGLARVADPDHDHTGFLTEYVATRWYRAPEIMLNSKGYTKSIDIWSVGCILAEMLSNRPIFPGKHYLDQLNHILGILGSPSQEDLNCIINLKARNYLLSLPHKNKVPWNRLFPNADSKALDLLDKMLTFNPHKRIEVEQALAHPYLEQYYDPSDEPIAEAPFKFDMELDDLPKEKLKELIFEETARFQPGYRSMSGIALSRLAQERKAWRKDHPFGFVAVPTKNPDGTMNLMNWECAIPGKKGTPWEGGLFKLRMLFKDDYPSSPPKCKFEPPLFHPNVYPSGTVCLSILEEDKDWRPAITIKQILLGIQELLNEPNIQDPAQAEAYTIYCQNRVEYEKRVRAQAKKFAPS
T4 sequence (P63279+Q16539 fused): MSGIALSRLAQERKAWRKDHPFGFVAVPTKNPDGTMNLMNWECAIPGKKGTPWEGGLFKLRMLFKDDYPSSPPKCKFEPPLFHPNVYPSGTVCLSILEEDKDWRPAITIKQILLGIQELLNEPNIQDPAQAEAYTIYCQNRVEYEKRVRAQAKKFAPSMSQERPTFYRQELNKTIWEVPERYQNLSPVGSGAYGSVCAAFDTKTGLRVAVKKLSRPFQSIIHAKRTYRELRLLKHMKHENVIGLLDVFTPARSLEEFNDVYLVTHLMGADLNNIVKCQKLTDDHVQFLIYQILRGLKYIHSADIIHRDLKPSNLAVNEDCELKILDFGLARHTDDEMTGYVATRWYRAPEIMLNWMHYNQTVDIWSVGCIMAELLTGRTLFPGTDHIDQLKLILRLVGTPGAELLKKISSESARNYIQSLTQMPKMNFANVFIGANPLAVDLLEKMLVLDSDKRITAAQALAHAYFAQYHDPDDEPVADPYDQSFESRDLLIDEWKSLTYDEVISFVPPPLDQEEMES
T9 sequence (P63279+O75031 fused): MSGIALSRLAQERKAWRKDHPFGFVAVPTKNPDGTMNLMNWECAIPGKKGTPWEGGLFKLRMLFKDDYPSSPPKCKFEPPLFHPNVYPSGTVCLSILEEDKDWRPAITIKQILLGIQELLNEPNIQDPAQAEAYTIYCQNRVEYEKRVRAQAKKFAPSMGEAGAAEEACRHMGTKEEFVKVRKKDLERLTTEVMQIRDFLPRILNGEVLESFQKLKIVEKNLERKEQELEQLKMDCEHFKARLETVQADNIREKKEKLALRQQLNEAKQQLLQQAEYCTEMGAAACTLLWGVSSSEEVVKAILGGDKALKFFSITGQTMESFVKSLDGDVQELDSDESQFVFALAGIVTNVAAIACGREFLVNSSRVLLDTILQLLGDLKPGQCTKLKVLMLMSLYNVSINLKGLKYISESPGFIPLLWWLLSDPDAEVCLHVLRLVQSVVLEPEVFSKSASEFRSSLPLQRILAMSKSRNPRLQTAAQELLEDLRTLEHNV
T7 sequence (P63279+P28482 fused): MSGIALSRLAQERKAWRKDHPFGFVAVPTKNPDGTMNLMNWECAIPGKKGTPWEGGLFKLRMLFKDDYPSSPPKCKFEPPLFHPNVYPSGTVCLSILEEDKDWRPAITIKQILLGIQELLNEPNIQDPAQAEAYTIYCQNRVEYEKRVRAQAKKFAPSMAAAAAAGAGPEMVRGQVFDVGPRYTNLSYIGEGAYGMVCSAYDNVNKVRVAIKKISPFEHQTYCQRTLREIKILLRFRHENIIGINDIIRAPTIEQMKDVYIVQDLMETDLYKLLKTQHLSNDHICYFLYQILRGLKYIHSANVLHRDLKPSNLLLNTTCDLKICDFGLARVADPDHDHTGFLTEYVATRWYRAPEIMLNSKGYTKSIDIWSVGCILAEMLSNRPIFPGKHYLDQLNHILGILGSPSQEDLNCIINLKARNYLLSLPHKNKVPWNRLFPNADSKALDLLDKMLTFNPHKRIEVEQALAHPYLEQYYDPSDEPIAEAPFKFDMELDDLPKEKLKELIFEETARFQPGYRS
T3 sequence (P49137+P63279 fused): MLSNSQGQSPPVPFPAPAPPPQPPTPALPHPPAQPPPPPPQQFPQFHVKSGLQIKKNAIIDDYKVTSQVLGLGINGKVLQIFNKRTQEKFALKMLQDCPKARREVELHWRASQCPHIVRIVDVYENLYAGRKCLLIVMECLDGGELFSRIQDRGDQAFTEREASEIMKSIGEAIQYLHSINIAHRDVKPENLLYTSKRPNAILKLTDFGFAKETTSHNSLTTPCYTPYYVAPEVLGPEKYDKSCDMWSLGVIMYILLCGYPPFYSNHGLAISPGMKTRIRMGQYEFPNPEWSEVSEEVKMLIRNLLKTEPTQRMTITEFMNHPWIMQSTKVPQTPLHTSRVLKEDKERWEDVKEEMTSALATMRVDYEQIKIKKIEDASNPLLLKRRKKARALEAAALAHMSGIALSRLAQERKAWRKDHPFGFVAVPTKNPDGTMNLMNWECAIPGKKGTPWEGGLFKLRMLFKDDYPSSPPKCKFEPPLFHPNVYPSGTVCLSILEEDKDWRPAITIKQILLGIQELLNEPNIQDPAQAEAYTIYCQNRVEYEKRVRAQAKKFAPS
T2 sequence (P63279+P49137 fused): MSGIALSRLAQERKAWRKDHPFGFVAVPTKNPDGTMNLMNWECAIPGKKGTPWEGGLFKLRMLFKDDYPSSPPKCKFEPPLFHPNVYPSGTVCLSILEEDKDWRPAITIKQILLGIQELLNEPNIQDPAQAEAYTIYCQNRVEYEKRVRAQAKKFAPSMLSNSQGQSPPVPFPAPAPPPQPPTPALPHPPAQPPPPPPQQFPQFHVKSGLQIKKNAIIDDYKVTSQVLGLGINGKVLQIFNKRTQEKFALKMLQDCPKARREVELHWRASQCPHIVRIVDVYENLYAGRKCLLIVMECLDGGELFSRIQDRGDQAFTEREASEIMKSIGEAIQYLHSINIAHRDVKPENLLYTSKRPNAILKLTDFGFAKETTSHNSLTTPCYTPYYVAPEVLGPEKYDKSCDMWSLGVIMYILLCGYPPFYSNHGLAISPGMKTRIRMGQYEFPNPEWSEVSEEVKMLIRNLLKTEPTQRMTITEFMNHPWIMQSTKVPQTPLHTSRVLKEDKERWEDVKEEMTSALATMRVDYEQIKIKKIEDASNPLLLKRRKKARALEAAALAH

B1: HA-MK5: MK5 fused to HA tag (protein)
chain: MSEESDMDKAIKETSILEEYSINWTQKLGAGISGPVRVCVKKSTQERFALKILLDRPKARNEVRLHMMCATHPNIVQIIEVFANSVQFPHESSPRARLLIVMEMMEGGELFHRISQHRHFTEKQASQVTKQIALALRHCHLLNIAHRDLKPENLLFKDNSLDAPVKLCDFGFAKIDQGDLMTPQFTPYYVAPQVLEAQRRHQKEKSGIIPTSPTPYTYNKSCDLWSLGVIIYVMLCGYPPFYSKHHSRTIPKDMRRKIMTGSFEFPEEEWSQISEMAKDVVRKLLKVKPEERLTIEGVLDHPWLNSTEALDNVLPSAQLMMDKAVVAGIQQAHAEQLANMRIQDLKVSLKPLHSVNNPILRKRKLLGTKPKDSVYIHDHENGAEDSNVALEKLRDVIAQCILPQAGKGENEDEKLNEVMQEAWKYNRECKLLRDTLQSFSWNGRGFTDKVDRLKLAEIVKQVIEEQTTSHESQ
modifications: left off: small tags and cut ends
notes: MK5 fused to HA tag
For B1, the Trans-SUMOylation (JUN-U) was “−”, the Trans-SUMOylation (U-MK2) was “−” and the Trans-SUMOylation (MK2-U) was “−”. For the same molecule, the Trans-SUMOylation (U-p38α) was “+”, the Trans-SUMOylation (ERK2-U) was “(+/−)” and the Trans-SUMOylation (U-MK5) was “(+/−)”. For the same molecule, the Trans-SUMOylation (U-ERK2) was “−” and the Trans-SUMOylation (U-CSNK2B) was “−”.

B2: GST-HSF2BP: HSF2BP fused to GST tag (protein, UniProt O75031 1-334, looked up)
Heat shock factor 2-binding …: MGEAGAAEEACRHMGTKEEFVKVRKKDLERLTTEVMQIRDFLPRILNGEVLESFQKLKIVEKNLERKEQELEQLKMDCEHFKARLETVQADNIREKKEKLALRQQLNEAKQQLLQQAEYCTEMGAAACTLLWGVSSSEEVVKAILGGDKALKFFSITGQTMESFVKSLDGDVQELDSDESQFVFALAGIVTNVAAIACGREFLVNSSRVLLDTILQLLGDLKPGQCTKLKVLMLMSLYNVSINLKGLKYISESPGFIPLLWWLLSDPDAEVCLHVLRLVQSVVLEPEVFSKSASEFRSSLPLQRILAMSKSRNPRLQTAAQELLEDLRTLEHNV
modifications: GST tag
B2 was tested, and the Trans-SUMOylation (U-HSF2BP) was “+” and the Trans-SUMOylation (U-HDGF) was “−”.
